Laboratory results: patent US20230050972A1 (MOMENTA PHARMACEUTICALS, published 2023)
Residue numbers refer to the chain shown, from its start. Values joined by “and” are separate entries in the source; they are usually repeats but may differ in a detail not shown here. Equal entries are not always repeated.

T1: in-house generated I domain of α11β1 (human, UniProt Q9UKX5 159-349, limits assumed)
T1 construct: domain: I domain; also called human α11β1 I domain; α11β1 I Domain
T1 sequence (looked up): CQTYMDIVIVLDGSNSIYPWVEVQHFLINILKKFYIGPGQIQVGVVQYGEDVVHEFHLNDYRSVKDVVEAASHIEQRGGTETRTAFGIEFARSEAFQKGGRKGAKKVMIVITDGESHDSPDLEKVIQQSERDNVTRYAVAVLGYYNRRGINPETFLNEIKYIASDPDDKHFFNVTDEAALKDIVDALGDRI

B1: 8-I14 (antibody, V domains shown)
VH: EVQLQQSGPELVKPGASVKKSCKASGYTFTDYYMHWVKQKPGQGLEWIGKIYPGSGNTHYNEKFKGKATLTADKSSSTAYMQLSSLTSEDSAVYFCATNYYGYRAMNYWGQGSSVTVSS
VL: DIHLTQSPSSLSASLGERISLTCRASQDIYISLNWFQQKPDGTIKLLIYGTSSLDSGVPKRFSGSRSGSDYSLTISSLESEDFADYYCLQYASSPYTFGGGTKLEIK
notes: mouse hybridoma IgG; also called 8-l14; 8114
B2: 9-E16 (antibody, V domains shown)
VH: EVQLQQSGPELVKPGASVKISCKASGYTFTDYYMHWVKQKPGQGLEWIGEIYPGSGNPYYNEKFKGKATLTADKSSSSAYMQLSSLTSEDSAVYFCARTSYGRVGTGFAYWGQGTLVTVSA
VL: NFVMTQTPLSLPVSLGDQASISCRSSQSLLHSNGNTYLHWYLQKPGQSPKLLIYKVSNRFSGVPDRFSGSGSGTDFTLKINRVETEDLGIYFCSQSSHVPTFGAGTKLELK
notes: mouse hybridoma IgG
B3: 8-G15 (antibody, V domains shown)
VH: EVQLQQSGPELVKPGASVRISCKASGYTFTDYYIHWVKQKPGQGLECIGEIYPGTDNTYYSKKFRGKATLTADKSSDTAYMQLSSLTSEDSAVYFCARGDYYRGYFDVWGAGTTVTVSS
VL: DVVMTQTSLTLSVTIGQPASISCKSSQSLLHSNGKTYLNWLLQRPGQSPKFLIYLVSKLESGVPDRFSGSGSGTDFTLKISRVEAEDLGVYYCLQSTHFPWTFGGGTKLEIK
notes: mouse hybridoma IgG
B4: 1994_01_C07 (antibody, V domains shown)
VH: QVQLVQSGAEVKKPGASVKVSCKASGYTFTSYGISWVRQAPGQGLEWMGWISAYNGNTNYAQKLQGRVTMTTDTSTSTAYMELRSLRSDDTAAYYCARVTGITGTTIDPWGQGTMVTVSS
VL: DIQMTQSPSSLSASVGDRVTITCRASQSISSYLNWYQQKPGKAPKLLIYDASSLESGVPSRFSGSGSGTEFTLTISSLQPDDFAVYYCQQYNNWPQTFGQGTKVEIK
notes: fully human, from phage display, scFv converted to IgG; kappa
B5: 24E4G6 (antibody, V domains shown)
VH: EVQLVESGGSLVQPGGSLKLSCVASGYTFSNYWMDWVRQSPGKSLEWIGEINTDGRRTNYAPSIKDRFTISRDNAKSTLYLQMSNVKSDDTAIYYCTILRVYPHYFDYWGQGVMVTVSS
VL: DVVMTQTPPSLSVAIGQSVSISCKSSQSLVYSDGETYLHWFLQSPGRSPKRLIYHVSNLGSGVPDRFSGTGSLTDFTLRISRVEAEDLGVYYCAQTTHFPPTFGAGTKLELK
notes: rat hybridoma mAb
B6: 40G10H11 (antibody, V domains shown)
VH: AVQLVESGGGLVQPGRSLKLSCAASRITFTDYYMAWVRQAPTKGLEWVATISSDGGDTFYRDSVKGRFTISRDNAKSTLYLQMVSLRSEDTATYYCSTDRGAQFGYWGQGTLVTVSS
VL: DIQMTQSPSFLSASVGDRVSINCKASQNVHENLNWYQQKLGEAPKRLIYNTNNLQTGIPSRFSGSGSGADYTLTISSLQPEDFATYFCLQHNAFPYTFGPGTKLELK
notes: rat hybridoma mAb
B7: 9-G05 (antibody, V domains shown)
VH: EVQLQQSGPELVKPGASVKIPCKASGYTFPDYNMDWVKQSHGKSLEWIGYINPDNGGTIYNQKFKGKATLTVDKSSSTAYMELRSLTSEDTAVYYCARLDSSGYGYYAMDYWGQGTSVTVSS
VL: DIVLTQSPASLAVSLGQRATISCRASESVDNYGISFMHWYQQKPGQPPKLLIYRASNLDSEIPARFSGSGSRTDFTLTIDPVETDDVATYYCQQSYKDPRTFGGGTKLEIK
notes: mouse hybridoma IgG
B8: 8-P20 (antibody, V domains shown)
VH: KVMLVESGGALVKPGGSLKLSCVASGFTFSNYAMSWVRQTPEKRLEWVATISSGGYYTYYPDSVKGRFTISRDNARNTLFLQMSSLRSEDTAMFYCAREDDYGRYSYTMDYWGQGTSVTVSS
VL: DVVMTQTPLSLPVSLGDQVSISCRCSQSLVHSNGNTYLHWYLQKPGQSPQLLIYKISNRFSGVPDRFSGSGSGTDFTLKISRVEAEDLGVYFCSQSTHVPYTFGGGTELEIK
notes: mouse hybridoma IgG
B9: 8-J17 (antibody, V domains shown)
VH: QVQLQQSGAELAKPGASVKMSCKASGYTFTNYWMHWVKQRPGQGLEWIGYINPNNGYTEYNQRFKDKATLTADRSSTTAYMQLSSLTSEDSAVYYCARSDIITTDYWGQGTTLTVSS
VL: B8 VL with V19A, C25S, H31Y, Q50K, I56V, Y101W, E108K
notes: mouse hybridoma IgG

Experiments:
recombinant mouse α11β1 = target: T2, recombinant mouse α11β1 (mouse, UniProt P61622 23-1141; P09055 21-728, limits assumed); experiment: ELISA, plate coated with recombinant mouse α11β1
T2 construct: also called murine α11β1
Experimental: (§1) 0.25 μg/mL of target antigen (recombinant human or mouse α11β1) was plated in a 96-well plate over night at 4° C. Plates were washed (PBS with 0.1% Tween-20), blocked (PBS with 2% BSA and 0.05% Tween-20) for 1 hour at room temperature and incubated with a range of antibody concentrations for 1 hour at room temperature. Subsequently, plates were washed and incubated with biotinylated anti-rabbit/mouse/human IgG in a 1:1000 dilution buffer and incubated for 1 hour at room temperature. After washing the plates, Streptavidin HRP was added at 1:200 in dilution buffer and incubated for 1 hour at room temperature. Ultra TMB ELISA substrate solution was added and the plates incubated for 5 minutes on a plate shaker. The reaction was stopped by adding stop solution to each well and plates were read at 450 nm.

[1] = target: T1, in-house generated I domain of α11β1; experiment: ELISA on the human α11β1 I domain
[2] = target: T3, human α11β1 expressed on the surface of CHO-K1 cells (human, UniProt Q9UKX5 23-1188); experiment: FACS on CHO-K1 hu α11β1 cells, estimated EC50
Experimental: (§2) 200,000 cells (wild-type CHO-K1 cells or CHO-K1 cells expressing human α11) were incubated with each antibody at desired concentrations in FACS buffer for 30 min at 4° C. Then, the cells were washed with FACS buffer and incubated with secondary antibody at 1:100 dilution for 30 minutes at 4° C. Cells were then washed and fixed with 1% PFA in PBS for 20 minutes at room temperature; washed again and read on a cytometer in FACS buffer.
Binding EC₅₀ was estimated using data from Fluorescence-activated cell sorting (FACS) performed with CHO-K1 hu α11β1 cells. Four out of six mAbs tested had EC₅₀ results in the low nanomolar range (8-P20, 8-G15, 8-J17, 8-l14), while the remaining two mAbs were not as potent (9-G05 and 9-E16; both I domain binders).

recombinant human α11β1 [3] = target: T4, recombinant human α11β1 (human, UniProt Q9UKX5 23-1141; P05556 21-728); experiment: ELISA, plate coated with recombinant human α11β1
T4 construct: Coated in ELISA; ELISA and SPR material treated as one molecule; also called HIS-tagged human α11β1; integrin alpha 11 beta 1
Experimental: as §1

Mouse CHO-α11 = Mouse CHO-α11 (mouse, UniProt P61622); experiment: FACS titration on Mouse CHO-α11 cells
recombinant human α11β1 [4] = target: T4, recombinant human α11β1; experiment: SPR, HIS-tagged human α11β1 captured by anti-HIS, antibody as analyte, single-cycle kinetics
Experimental: (§3) The affinity of antibodies for human α11β1 was measured by surface plasmon resonance assay (SPR). Affinity was measured at pH 7.6 and 25° C. with a Biacore T200 instrument. Anti-HIS antibody was immobilized on the SPR sensor surface using EDC/NHS covalent attachment. HIS-tagged human α11β1 was captured on the sensor surface and a single-cycle kinetics assay was used. Increasing concentrations of test antibody were injected in series over the sensor-bound α11β1. Dissociation was monitored for 1000 seconds. A sensor surface with only anti-HIS antibody and a series of blank injections were used to double-reference subtract the data. A 1:1 Langmuir model was fit to the data to estimate the kinetic association and dissociation constants. The affinity (equilibrium dissociation constant) of the interaction was calculated by dividing the kinetic dissociation constant by the kinetic association constant. Between injection cycles α11β1 and bound antibody were removed with an injection of 10 mM glycine at pH 1.5.
The binding affinity of antibodies for the α11β1 Headpiece and α11β1 I Domain as measured by SPR is shown in FIG. 10A and FIG. 10B, respectively.

[5] = target: T1, in-house generated I domain of α11β1; experiment: SPR, single-cycle injections of 33, 100 and 300 nM over the a11b1 I Domain
recombinant human α11β1 [6] = target: T4, recombinant human α11β1; experiment: SPR (Biacore T200), HIS-tagged human α11β1 captured on anti-HIS, single-cycle kinetics, 1:1 Langmuir fit
Experimental: as §3

[7] = target: T3, human α11β1 expressed on the surface of …; experiment: FACS titration on Human CHO-α11 cells
Experimental: as §2

[8] = target: T5, α11β1 on human myofibroblasts (MF) (human, UniProt Q9UKX5 23-1188; P05556 21-798); experiment: FACS titration on human myofibroblasts
T5 construct: whole, on cells
Experimental: (§4) Human Pulmonary Fibroblasts (ScienCell) were cultured in complete Fibroblast Growth Medium (ScienCell) until 80% confluent in T-150 flasks. Cells were washed and harvested using Accutase. Cells were seeded into T-150 flasks at 7,500 cells/cm² in complete FGF and cultured for 72 hours. Cells were then washed and starved in serum reduced medium for 24 hours. After starvation, cells were treated with TGFβ-1 (R&D Systems) for 72 hours. Cells were harvested using Accutase and seeded in 96-well conical bottom plates. Cells were blocked with Heat Inactived Fetal Bovine Serum (Gibco) for 30 minutes at 4° C. Cells were then incubated with anti-α11 antibodies at the doses described in each figure for 30 minutes at 4° C. A human anti-α11 antibody (Creative BioLabs) was included as a positive control as well as the appropriate IgG isotype negative controls. Cells were washed twice and incubated with PE conjugated secondary antibodies specific to the IgG class of the anti-α11 antibodies being tested for 30 minutes at 4° C. Cells were washed twice and fixed in 1% PFA for 30 minutes. Cells were acquired on a FACS Verse […]. Data were analyzed by gating on single cells and determining the geometric Mean Fluorescence Intensity (gMFI) in the PE channel for each sample.

[9] = target: T5, α11β1 on human myofibroblasts (MF); experiment: FACS on human myofibroblasts
Experimental: as §4

[10] = target: T1, in-house generated I domain of α11β1; experiment: ELISA on the human α11β1 I domain; remark: listed apart in the source
recombinant human α11β1 [11] = target: T4, recombinant human α11β1; experiment: ELISA on recombinant human α11β1
Experimental: as §1

T4 sequence (Q9UKX5 23-1141 limits assumed, chain 1 of 2): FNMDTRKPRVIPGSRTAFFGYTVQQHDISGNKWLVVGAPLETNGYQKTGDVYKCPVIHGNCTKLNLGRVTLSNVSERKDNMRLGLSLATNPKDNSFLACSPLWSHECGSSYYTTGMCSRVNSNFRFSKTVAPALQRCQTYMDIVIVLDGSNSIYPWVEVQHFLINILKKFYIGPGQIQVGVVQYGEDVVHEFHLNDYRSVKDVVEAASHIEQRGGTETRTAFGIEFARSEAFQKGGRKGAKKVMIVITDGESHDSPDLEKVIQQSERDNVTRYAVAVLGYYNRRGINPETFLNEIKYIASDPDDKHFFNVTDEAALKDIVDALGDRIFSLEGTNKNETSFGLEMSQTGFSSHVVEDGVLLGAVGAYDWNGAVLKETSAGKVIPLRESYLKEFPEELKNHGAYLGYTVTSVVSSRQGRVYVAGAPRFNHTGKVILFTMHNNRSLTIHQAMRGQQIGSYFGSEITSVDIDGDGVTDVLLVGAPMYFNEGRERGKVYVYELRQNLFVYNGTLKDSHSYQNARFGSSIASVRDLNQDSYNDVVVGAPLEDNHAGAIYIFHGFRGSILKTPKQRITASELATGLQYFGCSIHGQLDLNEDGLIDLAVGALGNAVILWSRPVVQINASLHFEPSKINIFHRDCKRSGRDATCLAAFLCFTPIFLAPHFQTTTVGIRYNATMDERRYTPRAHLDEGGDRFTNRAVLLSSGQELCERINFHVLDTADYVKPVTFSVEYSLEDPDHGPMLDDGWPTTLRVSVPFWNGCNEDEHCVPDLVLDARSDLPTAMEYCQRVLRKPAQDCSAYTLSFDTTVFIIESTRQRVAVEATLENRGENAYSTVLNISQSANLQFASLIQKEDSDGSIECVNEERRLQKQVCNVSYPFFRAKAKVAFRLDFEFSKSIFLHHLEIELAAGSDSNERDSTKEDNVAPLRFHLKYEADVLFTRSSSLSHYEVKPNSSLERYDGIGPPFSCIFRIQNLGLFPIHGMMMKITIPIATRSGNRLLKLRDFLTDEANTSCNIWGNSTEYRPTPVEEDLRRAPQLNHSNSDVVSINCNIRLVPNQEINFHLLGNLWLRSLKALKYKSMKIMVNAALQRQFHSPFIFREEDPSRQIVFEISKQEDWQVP
T4 sequence (P05556 21-728 limits assumed, chain 2 of 2): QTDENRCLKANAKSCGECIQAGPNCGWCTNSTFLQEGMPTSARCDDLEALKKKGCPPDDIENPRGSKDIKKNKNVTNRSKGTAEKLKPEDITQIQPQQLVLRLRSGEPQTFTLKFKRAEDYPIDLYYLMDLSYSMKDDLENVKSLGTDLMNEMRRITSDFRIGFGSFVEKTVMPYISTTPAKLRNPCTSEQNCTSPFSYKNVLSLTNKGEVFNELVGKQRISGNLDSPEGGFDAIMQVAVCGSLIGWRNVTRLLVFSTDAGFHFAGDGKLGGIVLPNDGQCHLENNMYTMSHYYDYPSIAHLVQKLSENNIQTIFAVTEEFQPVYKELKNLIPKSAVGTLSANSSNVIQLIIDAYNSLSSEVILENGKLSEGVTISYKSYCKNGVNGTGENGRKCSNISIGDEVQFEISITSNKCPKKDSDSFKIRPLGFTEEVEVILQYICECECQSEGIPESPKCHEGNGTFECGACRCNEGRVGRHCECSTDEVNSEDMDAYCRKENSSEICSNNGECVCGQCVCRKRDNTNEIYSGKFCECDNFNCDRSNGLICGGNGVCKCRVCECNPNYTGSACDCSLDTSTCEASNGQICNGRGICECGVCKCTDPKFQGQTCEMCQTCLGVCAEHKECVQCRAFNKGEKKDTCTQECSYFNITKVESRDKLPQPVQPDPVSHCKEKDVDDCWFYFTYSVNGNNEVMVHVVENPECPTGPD
T3 sequence (Q9UKX5 23-1188): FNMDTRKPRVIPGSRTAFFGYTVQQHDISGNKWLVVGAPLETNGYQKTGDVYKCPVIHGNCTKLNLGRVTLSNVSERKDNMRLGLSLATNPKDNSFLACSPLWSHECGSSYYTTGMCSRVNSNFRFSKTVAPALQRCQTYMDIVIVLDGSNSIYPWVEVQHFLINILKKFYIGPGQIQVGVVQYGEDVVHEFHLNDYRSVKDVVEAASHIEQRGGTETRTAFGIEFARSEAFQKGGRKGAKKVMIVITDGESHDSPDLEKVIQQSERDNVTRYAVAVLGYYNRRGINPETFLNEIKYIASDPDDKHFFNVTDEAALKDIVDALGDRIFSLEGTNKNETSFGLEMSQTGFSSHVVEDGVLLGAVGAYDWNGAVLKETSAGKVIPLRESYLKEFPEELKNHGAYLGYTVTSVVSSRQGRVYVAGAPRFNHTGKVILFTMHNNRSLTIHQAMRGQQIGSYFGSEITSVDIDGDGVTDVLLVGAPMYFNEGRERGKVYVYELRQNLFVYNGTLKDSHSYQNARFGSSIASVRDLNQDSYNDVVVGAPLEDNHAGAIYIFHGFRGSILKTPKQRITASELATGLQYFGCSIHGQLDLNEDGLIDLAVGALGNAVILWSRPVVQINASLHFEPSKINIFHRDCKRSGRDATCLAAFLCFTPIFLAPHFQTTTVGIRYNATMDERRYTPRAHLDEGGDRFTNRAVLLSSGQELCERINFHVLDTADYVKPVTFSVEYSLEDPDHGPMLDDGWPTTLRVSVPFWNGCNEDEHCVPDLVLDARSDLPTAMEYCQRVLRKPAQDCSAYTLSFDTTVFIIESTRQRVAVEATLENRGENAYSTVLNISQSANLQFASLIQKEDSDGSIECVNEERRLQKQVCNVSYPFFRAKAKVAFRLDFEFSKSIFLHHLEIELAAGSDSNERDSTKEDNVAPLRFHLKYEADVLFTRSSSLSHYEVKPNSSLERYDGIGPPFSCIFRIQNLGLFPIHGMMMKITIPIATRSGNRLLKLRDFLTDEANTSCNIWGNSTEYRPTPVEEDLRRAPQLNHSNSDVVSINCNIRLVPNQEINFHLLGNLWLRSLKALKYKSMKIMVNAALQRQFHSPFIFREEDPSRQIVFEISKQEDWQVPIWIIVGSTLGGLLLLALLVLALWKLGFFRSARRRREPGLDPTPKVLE
T5 sequence (Q9UKX5 23-1188, chain 1 of 2): as the sequence (Q9UKX5 23-1188) above
T5 sequence (P05556 21-798, chain 2 of 2): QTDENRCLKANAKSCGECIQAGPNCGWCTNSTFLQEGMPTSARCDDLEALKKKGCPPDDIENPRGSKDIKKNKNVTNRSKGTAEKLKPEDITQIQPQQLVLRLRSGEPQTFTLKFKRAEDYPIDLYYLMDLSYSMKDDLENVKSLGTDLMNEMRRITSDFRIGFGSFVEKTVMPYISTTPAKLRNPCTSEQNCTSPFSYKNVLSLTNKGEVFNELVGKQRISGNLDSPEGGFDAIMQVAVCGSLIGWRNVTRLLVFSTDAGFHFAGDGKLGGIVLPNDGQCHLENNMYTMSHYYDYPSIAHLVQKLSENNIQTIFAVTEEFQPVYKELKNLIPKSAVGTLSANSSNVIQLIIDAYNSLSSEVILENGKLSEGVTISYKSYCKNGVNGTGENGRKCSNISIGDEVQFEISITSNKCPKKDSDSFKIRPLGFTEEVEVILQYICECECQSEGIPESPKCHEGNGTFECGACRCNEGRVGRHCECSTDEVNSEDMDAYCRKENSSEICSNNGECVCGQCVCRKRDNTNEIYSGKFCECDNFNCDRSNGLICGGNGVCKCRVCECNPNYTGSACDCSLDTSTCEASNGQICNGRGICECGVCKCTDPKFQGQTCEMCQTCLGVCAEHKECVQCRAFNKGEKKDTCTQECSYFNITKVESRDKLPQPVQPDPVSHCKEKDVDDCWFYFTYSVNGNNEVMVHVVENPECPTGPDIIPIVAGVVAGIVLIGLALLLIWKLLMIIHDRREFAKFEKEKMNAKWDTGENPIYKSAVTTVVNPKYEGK
Sequence of Mouse CHO-α11 (P61622 23-1188): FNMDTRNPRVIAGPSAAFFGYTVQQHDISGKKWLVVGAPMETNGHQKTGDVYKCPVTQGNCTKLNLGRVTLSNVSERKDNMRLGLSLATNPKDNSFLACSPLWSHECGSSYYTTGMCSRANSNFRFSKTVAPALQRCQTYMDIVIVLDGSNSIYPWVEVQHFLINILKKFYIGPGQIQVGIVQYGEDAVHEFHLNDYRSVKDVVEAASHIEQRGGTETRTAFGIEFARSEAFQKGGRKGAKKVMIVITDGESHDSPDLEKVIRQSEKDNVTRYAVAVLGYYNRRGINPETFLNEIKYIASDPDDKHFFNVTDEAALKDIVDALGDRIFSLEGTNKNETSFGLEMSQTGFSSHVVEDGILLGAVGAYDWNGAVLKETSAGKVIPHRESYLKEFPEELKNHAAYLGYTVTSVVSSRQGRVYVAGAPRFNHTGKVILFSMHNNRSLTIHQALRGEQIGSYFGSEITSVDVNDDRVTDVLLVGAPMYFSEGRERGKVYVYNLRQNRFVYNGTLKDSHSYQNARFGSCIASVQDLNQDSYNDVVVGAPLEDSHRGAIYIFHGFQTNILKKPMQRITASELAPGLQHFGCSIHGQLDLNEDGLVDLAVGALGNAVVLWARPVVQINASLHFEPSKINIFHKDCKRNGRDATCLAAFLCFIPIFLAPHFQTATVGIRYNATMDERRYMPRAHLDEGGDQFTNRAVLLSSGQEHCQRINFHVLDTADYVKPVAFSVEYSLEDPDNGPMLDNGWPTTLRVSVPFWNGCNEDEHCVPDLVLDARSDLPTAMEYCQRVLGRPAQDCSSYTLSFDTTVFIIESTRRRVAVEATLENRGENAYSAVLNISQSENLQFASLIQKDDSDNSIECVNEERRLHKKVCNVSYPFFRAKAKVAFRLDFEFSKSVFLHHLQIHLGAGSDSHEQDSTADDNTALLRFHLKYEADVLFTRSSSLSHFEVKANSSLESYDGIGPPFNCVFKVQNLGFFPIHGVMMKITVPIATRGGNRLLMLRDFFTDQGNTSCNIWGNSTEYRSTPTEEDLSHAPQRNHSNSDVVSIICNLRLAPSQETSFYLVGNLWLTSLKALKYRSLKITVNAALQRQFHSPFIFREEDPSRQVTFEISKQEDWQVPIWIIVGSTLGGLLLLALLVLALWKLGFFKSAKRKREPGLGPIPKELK

| Binder | EC50 (read off the curve) (recombinant mouse α11β1) [ng/mL] | binding result [1] | EC50 [2] | EC50 (read off the curve) (recombinant human α11β1 [3]) [ng/mL] | binding result (recombinant mouse α11β1) | other results |
| --- | --- | --- | --- | --- | --- | --- |
| B1 | ~6 | no binding (tested: 1 µg/mL) | 1.22 µg/mL and 8.1 nM | ~0.2 |  |  |
| B2 | ~6 |  | 42.8 µg/mL and 285 nM | ~1 |  |  |
| B3 |  | no binding (tested: 1 µg/mL) | 0.22 µg/mL and 1.5 nM | ~0.03 | no binding (tested: 1 µg/mL) |  |
| B4 |  |  |  |  |  | EC50 (Mouse CHO-α11): 29 nM; Kd (recombinant human α11β1 [4]): 0.77 nM; binding result [5]: no binding (tested: 300 nM); koff (recombinant human α11β1 [6]): 0.000289 s⁻¹; kon (recombinant human α11β1 [6]): 374000 M⁻¹ s⁻¹; EC50 [7]: 7.75 nM; EC50 [8]: 0.53 µg/mL and 3.5 nM |
| B5 |  |  |  |  |  | binding result [9]: binds; binding result [10]: no binding (tested: 2 µg/ml); binding result (recombinant human α11β1 [11]): binds |
| B6 |  |  |  |  |  | binding result [10]: no binding (tested: 2 µg/ml) |
| B7 | ~30 |  | 21 µg/mL and 140 nM | ~10 |  | Kd (recombinant human α11β1 [4]): 2.85 nM; koff (recombinant human α11β1 [6]): 4.99e-05 s⁻¹; kon (recombinant human α11β1 [6]): 17500 M⁻¹ s⁻¹; EC50 (read off the curve) [1]: ~0.3 ng/mL; EC50 [7]: 187 nM |
| B8 |  | no binding (tested: 1 µg/mL) | 0.12 µg/mL and 0.8 nM | ~0.03 | no binding (tested: 1 µg/mL) |  |
| B9 |  | no binding (tested: 1 µg/mL) | 0.33 µg/mL and 2.2 nM | ~0.1 | no binding (tested: 1 µg/mL) |  |
